± gives the uncertainty stated by the source.
Assay: self-splicing fitness, log relative to wild type (ln ratio); higher = more splicing; Tetrahymena group I intron in knt gene, E. coli kanamycin selection, DiMSum; sequences stand for … in CUCUCU…GGAGGGAAAAGUUAUCAGGCAUGCACCUGGUAGCUAGUCUUUAAACCAAUAGAUUGCAUCGGUUUAAAAGGCAAGACCGUCAAAUUGCGGGAAAGGGGUCAACAGCCGUUCAGUACCAAGUCUCAGGGGAAACUUUGAGAUGGCCUUGCAAAGGGUAUGGUAAUAAGCUGACGGACAUGGUCCUAACCACGCAGCCAAGUCCUAAGUCAACAGAUCUUCUGUUGAUAUGGAUGCAGUUCACAGACUAAAUGUCGGUCGGGGAAGAUGUAUUCUUCUCAUAAGAUAUAGUCGGACCUCUCCUUAAUGGGAGCUAGCGGAUGAAGUGAUGCAACACUGGAGCCGCUGGGAACUAAUUUGUAUGCGAAAGUAUAUUGAUUAGUUUUGGAGUACUCGUGGUCG
In short: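 Six replicate transformations of E. coli BL21(DE3) with a pET-22b(+) library were grown overnight at 37°C or 30°C. The library randomised all eight P1ex-region intron nucleotides, the intron lying in the knt kanamycin-resistance gene, and plates were LB agar with or without 25 μg/mL kanamycin plus 100 μg/mL carbenicillin, 50 μM IPTG and 0.2% rhamnose. Pooled colonies were amplicon-sequenced on an Illumina HiSeq 2500, and fitness is the DiMSum error-weighted combination of wild-type-normalised replicate fold changes, kanamycin versus none.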

| Sequence | self-splicing fitness (ln) (30 °C) | self-splicing fitness (ln) (37 °C) |
| --- | --- | --- |
| ACCGAGCAAUAUUACGGUCG | -3.22 ± 0.23 | -1.68 ± 0.15 |
| ACCGAGCAAUAUUACGGUGC | -2.97 ± 0.21 | -3.33 ± 0.37 |
| ACCGAGCAAUAUUACGUACU | -2.31 ± 0.13 | -0.966 ± 0.14 |
| ACCGAGCAAUAUUACGUAUA | -3.96 ± 0.35 | -2.6 ± 0.27 |
| ACCGAGCAAUAUUACGUAUU | -3.21 ± 0.16 | -1.98 ± 0.17 |
| ACCGAGCAAUAUUACGUCAG | -3.7 ± 0.16 | -2.73 ± 0.17 |
| ACCGAGCAAUAUUACGUCCU | -1.71 ± 0.1 | -0.0861 ± 0.11 |
| ACCGAGCAAUAUUACGUCGG | -4.23 ± 0.39 | -3.13 ± 0.35 |
| ACCGAGCAAUAUUACGUGGG | -2.62 ± 0.18 | -2.87 ± 0.2 |
| ACCUAGCAAUAUUACGAAGC | -1.56 ± 0.11 | -0.832 ± 0.15 |
| ACCUAGCAAUAUUACGACUG | -2.84 ± 0.15 | -1.46 ± 0.18 |
| ACCUAGCAAUAUUACGAGAC | -3.14 ± 0.4 | -1.89 ± 0.24 |
| ACCUAGCAAUAUUACGAGCC | -2.81 ± 0.19 | -2.37 ± 0.3 |
| ACCUAGCAAUAUUACGAGUG | -1.43 ± 0.077 | -0.982 ± 0.092 |
| ACCUAGCAAUAUUACGAGUU | -2.28 ± 0.087 | -1.24 ± 0.1 |
| ACCUAGCAAUAUUACGAUCG | -1.19 ± 0.083 | -0.6 ± 0.1 |
| ACCUAGCAAUAUUACGCCCA | -1.16 ± 0.11 | -0.343 ± 0.12 |
| ACCUAGCAAUAUUACGCCCG | -1.73 ± 0.27 | -1.13 ± 0.28 |
| ACCUAGCAAUAUUACGCCGC | -2.21 ± 0.32 | -2.05 ± 0.4 |
| ACCUAGCAAUAUUACGCGGG | -3.58 ± 0.24 |  |
| ACCUAGCAAUAUUACGCUAU | -1.89 ± 0.084 | -1.1 ± 0.1 |
| ACCUAGCAAUAUUACGGAUC | -2.65 ± 0.13 | -1.35 ± 0.15 |
| ACCUAGCAAUAUUACGGCCG | -2.22 ± 0.43 | -1 ± 0.34 |
| ACCUAGCAAUAUUACGGCUG | -4.76 ± 0.36 | -2.32 ± 0.18 |

| Sequence | self-splicing fitness (ln) (30 °C) | self-splicing fitness (ln) (37 °C) |
| --- | --- | --- |
| ACCUAGCAAUAUUACGGCUU | -0.695 ± 0.076 | 0.252 ± 0.098 |
| ACCUAGCAAUAUUACGGGCA | -0.58 ± 0.11 | 0.19 ± 0.13 |
| ACCUAGCAAUAUUACGGUAA | -2.62 ± 0.13 | -1.89 ± 0.13 |
| ACCUAGCAAUAUUACGUAAG | -1.53 ± 0.065 | -0.172 ± 0.081 |
| ACCUAGCAAUAUUACGUGGG | -3.54 ± 0.17 | -3.4 ± 0.24 |
| ACCUAGCAAUAUUACGUGGU | -3.6 ± 0.14 | -2.95 ± 0.16 |
| ACCUAGCAAUAUUACGUGUU | -3.18 ± 0.1 | -1.4 ± 0.085 |
| ACCUAGCAAUAUUACGUUGG | -2.35 ± 0.092 | -2.46 ± 0.14 |
| ACGAAGCAAUAUUACGAAUA | -2.01 ± 0.26 | 0.937 ± 0.18 |
| ACGAAGCAAUAUUACGACUG | -0.657 ± 0.09 | -0.396 ± 0.098 |
| ACGAAGCAAUAUUACGAGUC | -4.22 ± 0.24 | -2.21 ± 0.19 |
| ACGAAGCAAUAUUACGAUCU | -0.659 ± 0.081 | -0.244 ± 0.082 |
| ACGAAGCAAUAUUACGCAAG | -1.02 ± 0.14 | -0.171 ± 0.18 |
| ACGAAGCAAUAUUACGCAGG | -1.67 ± 0.11 | -1.44 ± 0.12 |
| ACGAAGCAAUAUUACGCGGG | -1.62 ± 0.086 | -0.782 ± 0.1 |
| ACGAAGCAAUAUUACGCGUA | -1.27 ± 0.11 | -0.335 ± 0.084 |
| ACGAAGCAAUAUUACGCUAA | -1.22 ± 0.079 | -0.582 ± 0.083 |
| ACGAAGCAAUAUUACGCUGA | -0.881 ± 0.11 | -0.99 ± 0.1 |
| ACGAAGCAAUAUUACGCUGC | -3.95 ± 0.25 | -1.35 ± 0.18 |
| ACGAAGCAAUAUUACGCUGG | -1.07 ± 0.098 | -0.428 ± 0.11 |
| ACGAAGCAAUAUUACGGAAC | -3.19 ± 0.26 | -1.95 ± 0.25 |
| ACGAAGCAAUAUUACGGGCA | -1.46 ± 0.068 | -0.631 ± 0.075 |
| ACGAAGCAAUAUUACGGUCC | -1.92 ± 0.21 | -0.717 ± 0.21 |
| ACGAAGCAAUAUUACGUAAA | -2.9 ± 0.18 | -1.45 ± 0.19 |

Source: the supplement of paper PMC7877785
